# Assay results published in article PMC10256812.
# B1: HA-tagged SREBF1 (wild type), expressed in C4-2B cells [not stated] / KAT2A/GCN5, endogenous [human (endogenous in C4-2B, LAPC4)] (parent)
# chain 1: MDEPPFSEAALEQALGEPCDLDAALLTDIEDMLQLINNQDSDFPGLFDPPYAGSGAGGTDPASPDTSSPGSLSPPPATLSSSLEAFLSGPQAAPSPLSPPQPAPTPLKMYPSMPAFSPGPGIKEESVPLSILQTPTPQPLPGALLPQSFPAPAPPQFSSTPVLGYPSPPGGFSTGSPPGNTQQPLPGLPLASPPGVPPVSLHTQVQSVVPQQLLTVTAAPTAAPVTTTVTSQIQQVPVLLQPHFIKADSLLLTAMKTDGATVKAAGLSPLVSGTTVQTGPLPTLVSGGTILATVPLVVDAEKLPINRLAAGSKAPASAQSRGEKRTAHNAIEKRYRSSINDKIIELKDLVVGTEAKLNKSAVLRKAIDYIRFLQHSNQKLKQENLSLRTAVHKSKSLKDLVSACGSGGNTDVLMEGVKTEVEDTLTPPPSDAGSPFQSSPLSLGSRGSGSGGSGSDSEPDSPVFEDSKAKPEQRPSLHSRGMLDRSRLALCTLVFLCLSCNPLASLLGARGLPSPSDTTSVYHSPGRNVLGTESRDGPGWAQWLLPPVVWLLNGLLVLVSLVLLFVYGEPVTRPHSGPAVYFWRHRKQADLDLARGDFAQAAQQLWLALRALGRPLPTSHLDLACSLLWNLIRHLLQRLWVGRWLAGRAGGLQQDCALRVDASASARDAALVYHKLHQLHTMGKHTGGHLTATNLALSALNLAECAGDAVSVATLAEIYVAAALRVKTSLPRALHFLTRFFLSSARQACLAQSGSVPPAMQWLCHPVGHRFFVDGDWSVLSTPWESLYSLAGNPVDPLAQVTQLFREHLLERALNCVTQPNPSPGSADGDKEFSDALGYLQLLNSCSDAAGAPAYSFSISSSMATTTGVDPVAKWWASLTAVVIHWLRRDEEAAERLCPLVEHLPRVLQESERPLPRAALHSFKAARALLGCAKAESGPASLTICEKASGYLQDSLATTPASSSIDKAVQLFLCDLLLVVRTSLWRQQQPPAPAPAAQGTSSRPQASALELRGFQRDLSSLRRLAQSFRPAMRRVFLHEATARLMAGASPTRTHQLLDRSLRRRAGPGGKGGAVAELEPRPTRREHAEALLLASCYLPPGFLSAPGQRVGMLAEAARTLEKLGDRRLLHDCQQMLMRLGGGTTVTSS
# chain 2: MAEPSQAPTPAPAAQPRPLQSPAPAPTPTPAPSPASAPIPTPTPAPAPAPAAAPAGSTGTGGPGVGSGGAGSGGDPARPGLSQQQRASQRKAQVRGLPRAKKLEKLGVFSACKANETCKCNGWKNPKPPTAPRMDLQQPAANLSELCRSCEHPLADHVSHLENVSEDEINRLLGMVVDVENLFMSVHKEEDTDTKQVYFYLFKLLRKCILQMTRPVVEGSLGSPPFEKPNIEQGVLNFVQYKFSHLAPRERQTMFELSKMFLLCLNYWKLETPAQFRQRSQAEDVATYKVNYTRWLCYCHVPQSCDSLPRYETTHVFGRSLLRSIFTVTRRQLLEKFRVEKDKLVPEKRTLILTHFPKFLSMLEEEIYGANSPIWESGFTMPPSEGTQLVPRPASVSAAVVPSTPIFSPSMGGGSNSSLSLDSAGAEPMPGEKRTLPENLTLEDAKRLRVMGDIPMELVNEVMLTITDPAAMLGPETSLLSANAARDETARLEERRGIIEFHVIGNSLTPKANRRVLLWLVGLQNVFSHQLPRMPKEYIARLVFDPKHKTLALIKDGRVIGGICFRMFPTQGFTEIVFCAVTSNEQVKGYGTHLMNHLKEYHIKHNILYFLTYADEYAIGYFKKQGFSKDIKVPKSRYLGYIKDYEGATLMECELNPRIPYTELSHIIKKQKEIIKKLIERKQAQIRKVYPGLSCFKEGVRQIPVESVPGIRETGWKPLGKEKGKELKDPDQLYTTLKNLLAQIKSHPSAWPFMEPVKKSEAPDYYEVIRFPIDLKTMTERLRSRYYVTRKLFVADLQRVIANCREYNPPDSEYCRCASALEKFFYFKLKEGGLIDK
# Variants of: B1
# Experiment: co-immunoprecipitation (anti-HA affinity gel, immunoblot with KAT2A antibody), band quantification
# Conditions: with KAT2A/GCN5, endogenous [human (endogenous in C4-2B, LAPC4)]; C4-2B cells; + Abi; parent: 1
row,response,Variant
1,0.01,chain 1 Y673A Y951A
